This passage reports Req results from paper PMC6053506.

Assay [1] has as its target AQP4-IgG (rAb-53) with the Fc mutation K322A (human). Description: BLI; Octet K2, 30°C; antibody (6 µg/ml) loaded on anti-human Fab-CH1 biosensors; mouse FcRn-b2m in solution; PBS pH 7.2 for dilution, association and dissociation. A general note: In BLI a coated tip is dipped into the sample, and binding shifts an interference pattern.
In assay [2] the target is AQP4-IgG (rAb-53) with the Fc mutation N297D (human). The assay is described as above.
AQP4-IgG (rAb-53) with the Fc mutation N297D (human), sequence (heavy, as listed by the source, chain 1 of 2): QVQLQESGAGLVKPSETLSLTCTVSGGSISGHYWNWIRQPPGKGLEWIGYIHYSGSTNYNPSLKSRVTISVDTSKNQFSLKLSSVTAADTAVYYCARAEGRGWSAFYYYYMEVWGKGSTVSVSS
AQP4-IgG (rAb-53) with the Fc mutation N297D (human), sequence (light, as listed by the source, chain 2 of 2): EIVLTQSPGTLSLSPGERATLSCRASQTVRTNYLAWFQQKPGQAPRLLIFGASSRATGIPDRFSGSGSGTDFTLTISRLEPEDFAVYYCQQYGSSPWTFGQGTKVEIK
Assay [3] deals with AQP4-IgG (rAb-53) with the Fc mutation P331G (human). The assay is described as above.
AQP4-IgG (rAb-53) with the Fc mutation P331G (human), sequence (heavy, as listed by the source, chain 1 of 2): as the sequence (heavy, as listed by the source, chain 1 of 2) above
AQP4-IgG (rAb-53) with the Fc mutation P331G (human), sequence (light, as listed by the source, chain 2 of 2): as the sequence (light, as listed by the source, chain 2 of 2) above
Assay [4] concerns the target AQP4-IgG (rAb-53) with the Fc mutation D270A (human). Description: BLI; Octet K2, 30°C; antibody (6 µg/ml) loaded on anti-human Fab-CH1 biosensors; mouse FcRn-b2m in solution, 2,000 to 0 nM; 100 mM sodium phosphate, 150 mM NaCl, 0.05% Tween-20, pH 6; 60 s association, 60 s dissociation.
Assay [5] addresses AQP4-IgG (rAb-53) with the Fc mutation K322A (human). The assay is described as above.
Assay [6] has as its target AQP4-IgG (rAb-53) with the Fc mutation N297D (human). Described as above.
The target of assay [7] is AQP4-IgG (rAb-53) with the Fc mutation P329A (human). The assay is described as above.
AQP4-IgG (rAb-53) with the Fc mutation P329A (human), sequence (heavy, as listed by the source, chain 1 of 2): as the sequence (heavy, as listed by the source, chain 1 of 2) above
AQP4-IgG (rAb-53) with the Fc mutation P329A (human), sequence (light, as listed by the source, chain 2 of 2): as the sequence (light, as listed by the source, chain 2 of 2) above
Assay [8] addresses AQP4-IgG (rAb-53) with the Fc mutation P331G (human). The description is as above.
Assay [9] has as its target human monoclonal AQP4-IgG (rAb-53), wild type (human). Described as above.
For assay [10], the target named is isotype control antibody directed against measles virus (2B4-IgG) (human). Described as above.

AQP4-IgG (rAb-53) with the Fc mutation K322A (human), sequence (heavy, as listed by the source, chain 1 of 2): as the sequence (heavy, as listed by the source, chain 1 of 2) above
AQP4-IgG (rAb-53) with the Fc mutation K322A (human), sequence (light, as listed by the source, chain 2 of 2): as the sequence (light, as listed by the source, chain 2 of 2) above
human monoclonal AQP4-IgG (rAb-53), wild type (human), sequence (heavy, as listed by the source, chain 1 of 2): as the sequence (heavy, as listed by the source, chain 1 of 2) above
human monoclonal AQP4-IgG (rAb-53), wild type (human), sequence (light, as listed by the source, chain 2 of 2): as the sequence (light, as listed by the source, chain 2 of 2) above
AQP4-IgG (rAb-53) with the Fc mutation D270A (human), sequence (heavy, as listed by the source, chain 1 of 2): as the sequence (heavy, as listed by the source, chain 1 of 2) above
AQP4-IgG (rAb-53) with the Fc mutation D270A (human), sequence (light, as listed by the source, chain 2 of 2): as the sequence (light, as listed by the source, chain 2 of 2) above

Turning to “mouse FcRn-Beta-2 microglobulin heterodimer protein (from UniProt Q61559 22-297; P01887 21-119) (complex)”, the Req came to 0.198 in assay [1]; 0.136 in [2]; 0.151 in assay [3]; 0.43 in assay [4]; 0.987 in [5]; 1 in [6]. The Req in [7] stood at 1.16; in [8], 0.915; in assay [9], 0.851; in [10], 0.76.
